Laboratory results from the supplement of paper PMC10567573.

B1: SNAP91 (parent)
chain: FAAPSPATTASPAKVDSSGVIDLF

Variants of: B1
Test: protein stability index of a GFP-peptide fusion (GPS, HEK-293T) (PSI 1-6); higher = more stable
Conditions: c terminus: a fixed tail appended
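Further: lentivirally expressed fusions sorted by FACS into six bins by GFP to DsRed ratio, PSI derived from sequencing read proportions per bin multiplied by bin number.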

Variant | protein stability index
FAAPSPATTASPAKVDSQGVIDLF [S18Q] | 2.49
FAAPSPATTASPAKVDSHGVIDLF [S18H] | 2.12
FAAPSPATTASPAKVDSTGVIDLF [S18T] | 2.49
FAAPSPATTASPAKVDSEGVIDLF [S18E] | 2.72
FAACSPATTASPAKVDSSGVIDLF [P4C] | 1.56
FAAHSPATTASPAKVDSSGVIDLF [P4H] | 2.26
FAAMSPATTASPAKVDSSGVIDLF [P4M] | 2.18
FAAQSPATTASPAKVDSSGVIDLF [P4Q] | 2.2
FAANSPATTASPAKVDSSGVIDLF [P4N] | 2.43
FAASSPATTASPAKVDSSGVIDLF [P4S] | 1.71
FAAKSPATTASPAKVDSSGVIDLF [P4K] | 2.08
FAAFSPATTASPAKVDSSGVIDLF [P4F] | 1.61
FAAPSPATHASPAKVDSSGVIDLF [T9H] | 2.66
FAAPSPATMASPAKVDSSGVIDLF [T9M] | 2.31
FAAPSPATLASPAKVDSSGVIDLF [T9L] | 2.25
FAAPSPATYASPAKVDSSGVIDLF [T9Y] | 1.67
FAAPSPATTASPAKVDSSGVQDLF [I21Q] | 3.05
FAAPSPATTASPAKVDSSGVVDLF [I21V] | 3.22
FAAPSPATTASPAKVDSSGVDDLF [I21D] | 3.96
FAAPSPATTASPAKVDSSGVSDLF [I21S] | 3.37
FAAPSAATTASPAKVDSSGVIDLF [P6A] | 2.18
FAAPSVATTASPAKVDSSGVIDLF [P6V] | 1.82
FAAPSNATTASPAKVDSSGVIDLF [P6N] | 2.94
FAAPSGATTASPAKVDSSGVIDLF [P6G] | 2.31

Variant | protein stability index
FAAPSEATTASPAKVDSSGVIDLF [P6E] | 3.08
FAAPSTATTASPAKVDSSGVIDLF [P6T] | 2.23
FAAPSPATTASSAKVDSSGVIDLF [P12S] | 2.32
FAAPSPATTASNAKVDSSGVIDLF [P12N] | 2.6
FAAPSPATTASMAKVDSSGVIDLF [P12M] | 2.17
FAAPSPATTASIAKVDSSGVIDLF [P12I] | 2.08
FAAPSPHTTASPAKVDSSGVIDLF [A7H] | 2.7
FAAPSPPTTASPAKVDSSGVIDLF [A7P] | 2.62
FAAPSPWTTASPAKVDSSGVIDLF [A7W] | 3
FAAPSPQTTASPAKVDSSGVIDLF [A7Q] | 2.84
FAAPSPAATASPAKVDSSGVIDLF [T8A] | 2.62
FAAPSPARTASPAKVDSSGVIDLF [T8R] | 2.24
FAAPSPAGTASPAKVDSSGVIDLF [T8G] | 2.3
FAAPSPAKTASPAKVDSSGVIDLF [T8K] | 2.42
FKAPSPATTASPAKVDSSGVIDLF [A2K] | 3.08
FVAPSPATTASPAKVDSSGVIDLF [A2V] | 1.69
FHAPSPATTASPAKVDSSGVIDLF [A2H] | 1.63
FIAPSPATTASPAKVDSSGVIDLF [A2I] | 2.03
FWAPSPATTASPAKVDSSGVIDLF [A2W] | 1.99
FSAPSPATTASPAKVDSSGVIDLF [A2S] | 2.97
FQAPSPATTASPAKVDSSGVIDLF [A2Q] | 2.17
FAAPSPATTASPAIVDSSGVIDLF [K14I] | 2.61
FAAPSPATTASPAYVDSSGVIDLF [K14Y] | 2.24
FAAPSPATTASPAPVDSSGVIDLF [K14P] | 2.7

Variant | protein stability index
FAAPSPATTASPAKVDSSGVIDLS [F24S] | 3.77
FAAPSPATTASPAKVDSSGVIDLQ [F24Q] | 3.85
FAAPSPATTASPAKVDSSGVIDLK [F24K] | 4.2
FAAPWPATTASPAKVDSSGVIDLF [S5W] | 2.62
FAAPAPATTASPAKVDSSGVIDLF [S5A] | 2.51
FAAPVPATTASPAKVDSSGVIDLF [S5V] | 2.64
FAAPSPATTAHPAKVDSSGVIDLF [S11H] | 2.08
FAAPSPATTATPAKVDSSGVIDLF [S11T] | 2.48
FAAPSPATTAQPAKVDSSGVIDLF [S11Q] | 2.56
FAAPSPATTADPAKVDSSGVIDLF [S11D] | 2.73
FAAPSPATTAGPAKVDSSGVIDLF [S11G] | 2.45
FAAPSPATTAVPAKVDSSGVIDLF [S11V] | 2.38
FAAPSPATTAIPAKVDSSGVIDLF [S11I] | 2.3
FAAPSPATTASPAKVDSSGVIDQF [L23Q] | 4.46
FAAPSPATTASPAKVDSSGVIDHF [L23H] | 4.27
FAAPSPATTASPAKVDSSGVIDKF [L23K] | 4.12
FAAPSPATTASPAKVDQSGVIDLF [S17Q] | 2.52
FAAPSPATTASPAKVDESGVIDLF [S17E] | 2.45
FAAPSPATTASPAKVDYSGVIDLF [S17Y] | 2.7
FAAPSPATTASPAKVDHSGVIDLF [S17H] | 2.71
FAAPSPATTASPAKVDWSGVIDLF [S17W] | 1.63
FAAPSPATTASPAKVDPSGVIDLF [S17P] | 2.39
FAAPSPATTASPAKGDSSGVIDLF [V15G] | 2.41
FAAPSPATTASPAKNDSSGVIDLF [V15N] | 2.52

Variant | protein stability index
FAAPSPATTASPAKLDSSGVIDLF [V15L] | 2.23
FAAPSPATTASPAKDDSSGVIDLF [V15D] | 2.68
FAAPSPATTASPDKVDSSGVIDLF [A13D] | 2.71
FAAPSPATTASPLKVDSSGVIDLF [A13L] | 2.43
FAAPSPATTASPFKVDSSGVIDLF [A13F] | 2.01
FAAPSPATTASPIKVDSSGVIDLF [A13I] | 1.92
FAAPSPATTASPAKVDSSVVIDLF [G19V] | 2.07
FAAPSPATTASPAKVDSSAVIDLF [G19A] | 2.56
FAAPSPATTASPAKVDSSMVIDLF [G19M] | 1.92
FAAPSPATTASPAKVDSSEVIDLF [G19E] | 2.84
FAAPSPATTASPAKVDSSFVIDLF [G19F] | 1.26
FAAPSPATTASPAKVDSSDVIDLF [G19D] | 2.94
FAAPSPATTASPAKVDSSHVIDLF [G19H] | 2.4
FAAPSPATTASPAKVDSSGYIDLF [V20Y] | 2.07
FAAPSPATTASPAKVDSSGIIDLF [V20I] | 2.25
FAAPSPATTASPAKVKSSGVIDLF [D16K] | 2.17
FAAPSPATTASPAKVPSSGVIDLF [D16P] | 2.19
FAAPSPATTASPAKVASSGVIDLF [D16A] | 1.9
FAAPSPATTASPAKVSSSGVIDLF [D16S] | 1.91
FAAPSPATTASPAKVRSSGVIDLF [D16R] | 2.03
FAAPSPATTASPAKVFSSGVIDLF [D16F] | 1.68
FAAPSPATTASPAKVTSSGVIDLF [D16T] | 2.54
